The text below walks through data of patent US20230235032A1 (published 2023).

The test concerns the target T1, human α-CGRP (1-37, WT) (human, not fully specified; C-terminal amide; N-terminally biotinylated when captured on the chip; 125I-labelled in the radioligand assay).
T1 construct: also called full length human α-CGRP
T1 peptide: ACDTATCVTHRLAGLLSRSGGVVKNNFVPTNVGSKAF
The test can be described thus: Biacore competition: 50 nM G1 Fab + 10 uM peptide, over human α-CGRP on SA chip. The protocol: All Biacore assays were conducted in HBS-EP running buffer (10 mM HEPES pH 7.4, 150 mM NaCl, 3 mM EDTA, 0.005% v/v polysorbate P20). CGRP surfaces were prepared by diluting the N-biotinylated CGRP to a concentration of less than 0.001 mg/mL into HBS-EP buffer and injecting it across the SA sensor chip using variable contact times. […] Samples were typically injected for 1 minute at 100 μL/min and dissociation times of at least 10 minutes were allowed. […] An entire titration series (typically generated in duplicate) was fit globally to a 1:1 Langmuir binding model using the BIAevaluation program. This returned a unique pair of association and dissociation kinetic rate constants (respectively, kₒₙ and koff) for each binding interaction, whose ratio gave the equilibrium dissociation constant (KD=koff/kₒₙ).

B1: anti-CGRP antibody G1, Fab fragment (Fab, V domains shown)
VH: EVQLVESGGGLVQPGGSLRLSCAASGFTFSNYWISWVRQAPGKGLEWVAEIRSESDASATHYAEAVKGRFTISRDNAKNSLYLQMNSLRAEDTAVYYCLAYFDYGLAIQNYWGQGTLVTVSS
VL: EIVLTQSPATLSLSPGERATLSCKASKRVTTYVSWYQQKPGQAPRLLIYGASNRYLGIPARFSGSGSGTDFTLTISSLEPEDFAVYYCSQSYNYPYTFGQGTKLEIK
notes: Fab expressed in E. coli; the vector adds the CH1 constant domain of human IgG2 (Ig gamma-2 chain C region, P01859) and the human kappa light chain constant domain (CAA09181); purified on Ni-NTA, tag not described
For the molecule B1, the “percentage of binding blocked by competing peptide” value is 100%.
